Reference: a protein production outcome set (Wang et al. 2014)

Assay: label from the status in PepcDB records
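Further: failed if final PepcDB status was selected cloned or expressed and not failed if soluble or beyond.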

Sequence: MAFSTDDTLWREFLQVWPLERLREMTLAEYTTAGDKDCFVYWLEFRLVDYGSIAGGSAFKFAIFSRKETGAREGDTSLAYDDRYGWYRRFGTSPEEAFQTIRGHVVAVAEAARDGRLDEIDNSPLGAAYRWKIAFHYQPLRNPSTPCVYVRKPLLHFLGLSAADTTTPQSELYQALARLRQADESIFVFSERLWKDWVADTPFVVKLSEGAIKHGYLPVNLISAPFPETMYGGKTPNEAADVAHFRTDTGLEFDTDLRVSSPGSARLRHRLGGYFEDIGAAAGDLITLTQDGDGTYLLSSKLAVHAIGPTASAATITARASVKEAAAVRPPLNQILFGPPGTGKTYEAIEKALEILDPSFLLQLGDDESNERRRALKRRYDELAKEGLVQFVTFHQSFSYENFVEGLSASSDPDTKQVRYEVEDGVFKELCESARTRLVRRSDDAPLELSGRRIWKLSLGDSITEGHIFEECMEKGLALMGFGNNADFSQCQSREDIQKMFAASGEPLSLGAYPITAIKTFVCQMKLGDLIVVSEGNLKFRAIGEITGDYQLLPRDSDTYSQARPVRWLRGYKPALPYGALMENRFSQMTVYELRAGSIDHDKFRELLKSECIATGADRPHVLIIDEINRGNVSRIFGELITLIEPSKRSGAAEALEVLLPYSKDPFSVPDNVYLIGTMNTADRSLAGLDIALRRRFDFVEMAPRPDKLTGVKVAEIDISAVLETMNRRIEVLLDREHRLGHAYFMSLENSNDLSRLSNIFRQQIIPLLQEYFFEDWQRIAWILNDHRKDERFRFIVPAPYSVDSLFGDTGQVAQDSKAWRMNEEAFHKPQSYLGIVGDGKV
- protein production: failed

Sequence: MKKILLSLITAAVLLSCQSSRDTSHKYTAITPGVEWLDTNNEKINAHGGGILYHEGIYYWYGECKSDSTYWNPNVPGWECYRTEAGGVNCYSSKDLLNWKYEGLVLQPEISDTQSDLHPSKVLERPKVIYNDKTKKFVMWLHVDSDDYNKAAAGVAVSDSPTGVFTYLGSMHPNGQISRDMTLFKDDDGKAYHIYSSEQNSTLYISLLSDDYLKPSGTFTRNFAGKFREAPAVFKHNGLYYVISSGCTGWSPNEAEYAVATQILGPWTVKGNPCVGKDADKTFYGQSTHVLPIQGKKDAYIAMFDKWNKTDLIHSTYIWLPIQFREDGSMAIQWLDSWSPDTYEF
- protein production: failed

Sequence: NKELNELNIIKLTRMMYYGQLLHYLSIGLTLVMTYSCNLRCPYCYEGDIKSKGGLLTREKIETILTFASAHAQGDKKPTISVSFYGGEPLLNWKGCEYTLQRLEEMKENKEIRDYSAGFVTNGTLINEDIVDAINNYNVYSMQITLDGPKEIHDKRRIKSNGEGTFDQIIENIKLLNRRIANKNFHLALRINVDKTNYKKIPELLDFLKDEGLGGIPISYGIVRGNLPYCSSNCGVYFSGSDLQKYLPYLWKEAYRRGFEVWTRPNL
- protein production: failed

Sequence: MSASGLLVEKSGPLSLIQDFGRFGLAHIGITQGGPVDDYAYSWANHLLGNRVNCSAIEITLGNACFIALQDCHLAICGGDLNASVDGHPIANWSDFSIKKGQKLQFGMAKNGLRAYLAVKGGFNVPEHLGSSSTVLREALGGLEANGNALKAGDVLPFDAHSLPNHKPRIMTFRFKPDYNLPITLRVIEGYQCDDFSVEAKEKFYSGSFAISPDSNRMGYRLEGNTVKPPYDGILSEGIALGAIQIPHDGNPIVLLNDHQTIGGYPKLGCVARIDLPRLAQAKPGQKVRFVKGDRQGLQDVWCQWAQFFGY
- protein production: failed

Sequence: MGPRRLLLVAACFSLCGPLLSARTRARRPESKATNATLDPRSFLLRNPNDKYEPFWEDEEKNESGLTEYRLVSINKSSPLQKQLPAFISEDASGYLTSSWLTLFVPSVYTGVFVVSLPLNIMAIVVFILKMKVKKPAVVYMLHLATADVLFVSVLPFKISYYFSGSDWQFGSELCRFVTAAFYCNMYASILLMTVISIDRFLAVVYPMQSLSWRTLGRASFTCLAIWALAIAGVVPLLLKEQTIQVPGLNITTCHDVLNETLLEGYYAYYFSAFSAVFFFVPLIISTVCYVSIIRCLSSSAVANRSKKSRALFLSAAVFCIFIICFGPTNVLLIAHYSFLSHTSTTEAAYFAYLLCVCVSSISCCIDPLIYYYASSECQRYVYSILCCKESSDPSSYNSSGQLMASKMDTCSSNLNNSIYKKLLT
- protein production: failed

Sequence: MKSGIGVGLKKEHLKIQINNSGVLTITGGCPVDQTKTIRFMKETKVAKDCKRNEIRAKFSKGVLYVTMPKTIPIAAGLSVSLKGATPQHQTPKTDEGMRNVANCSSEFYSKFGSLKQRLWRKTVVEGVAAVVVVAAAVLGVVKAYQYFMASPV
- protein production: failed

Sequence: MSGDMEATGWGYTHISVDSFCHKWTISNFSFCMDGIMETITSPKFSLKASDKVEWGLKVHPNGIDEESKNYLSVYLALLHCQKSPVWAKYEFWIINSQGEKYQSRKSTKVVSFHKNKYRGFKKFILRDFLFSNPHRLLPEDQLTLCCQVSIMGAFFKTPGQSITPAVPDPRHMMADDLGELWENSLCTDCCLLVAGQEFRAHKAILAARSPVFRAMFEHQMEERLTNRVDINGLDPKVFKEMMGFIYTGKAPHLHIHSMACDLLAAADRYGLEGLKVMCEDALCRNLSVENAAHTLILADLHNIEQLKTQALDFIALHASEVSENSEWKSMMESHPHLVAETFHSLASAQCFLEPSIKHLK
- protein production: failed

Sequence: MTKSELIEQLCSKKPQLSAKQVEDTVKEILEQMATTLEGGDRIEIRGFGSFSLHYREPRLGRNPKTGDKVELDGKFVPHFKPGKELRERVNYS
- protein production: failed

Sequence: KYTQNNFITGVRAINEFCLKSSDLEQLRKIRRRSPHEDTESFTVYLRSDVEAKSLEVWGSPEALAREKKLRKEAEIEYRERLFRNQKILREYRD
- protein production: not failed

Sequence: MSRKRTENGSESGPATSHVPVDRFGFLKQEHANSPERFSKSKTTSSTDHDREERKVRKWRKMIGVGGSDWKHYVRRKPNVVRRRIRKGIPDCLRGLVWQLISGSRDLLLMNPGVYEQLVIYETSASELDIIRDISRTFPSHVFFQKRHGPGQRSLYNVLKAYSVYDRDVGYVQGMGFIAGLLLLYMSEEDAFWLLVALLKGAVHAPMEGLYHAGLPLVQQYLFQLESLVKELIPKLGEHFTQEMINPSMYASQWFITVFSYSFPFPLALRIWDVFLSEGVKIVFKVGLALLKYCQDELVSKVTV
- protein production: failed

Sequence: MASSSKNITYPPRLYPEGLLKSSLCVFIKFADAKYIWAAHTVHYFLTNQLSVNNFHEIMSVIDGWPIRFSLTEFVDITSLNCDLLDKSTTCEIGHYEFWNEMGVGTYDGPLFIELKHVMDISKEWSYEKRLMVGRLCLLSVGVHGIYHGCRIPLSSAKLVLDPKAFEKYLWGRVAFESLVISVKIVDYKKDICDSWMCPRLVDLDL
- protein production: failed

Sequence: MTEAIVASVATEPSLRPLAVLLVPLVTVGLIFLSKNRPNIREAWSILAAVTMFGIVASMVPDVLNGRVHETDLGFFVEGIELVLRADGLGMLFALVASGLYVVTAIYSIGYMRGHHEPFQTRFFAMLCASVGAALGVAFASNLFMLLVFYEVLTLATYPLVAHDESEKARVSGYKYLAYALSGGLAVFGGMLAVYWLTDPSTITFTRGGIEGLATVAAADPWAARGAFALLAGGFAVKAAVMPLHSWLPSAMVAPTPVSGLLHAVAVVKAGAFGVARTIIDVFGPETVRQIGMGLPLTIAAGATILIASLFALRQDNLKARLAYSTIAQLSYIVLGLSLLSGMGLMGGLLHIPAHAFSKLTLFLCAGALYVELDVKYISEMAGVGKRMPVTMGAFGLASFSMAGIPLMAGFVSKWHLIWGGAEAGYLLVAPLLVLSGVLNVAYFWPIIYTAFFESEDDADQKPVLDNPFGGVFDDDAYLTDGGVSSDDQHEDDSHDDHHDDGHHARPELPPAGGWDRSNWYGGETTLLLVAPLVTTATLMFIFGVAPDYIVFFDLIEGIVDGALEVDN
- protein production: failed

Sequence: MVKVAHVQLSSCCGCLVSLADTYEKLLDVLGAIDLVYSQTLADVREVPDDVDIILLEGSVCLSDHHAMEVALDSRKKAKILVALGACAATGNVTRFSKGNQPSKPVHDAFAPLTEVVKCDLAIPGCPPSPESIVAVVLAALNGDMEYLEPYAELAKYGSEACGCDLITKVINKSLCMGCGSCAAACPTRAVSMDAGRPLVDKEICIKCGSCSVQCPRIRFPDLIEKIE
- protein production: failed

Sequence: MLSQTLLEMTEQMIEVAEKGADRYQEGKNSNHSYDFFETIKPAVEENDELAARWAEGALELIKVRRPKYVHKEQIEAVKDNFLELVLQSYVHHIHKKRFKDITESVLYTLHAVKDEIAREDSRLEHHHHHH
- protein production: not failed

Sequence: MNTIDIAKSYITAIQTGDHATLGSIISPDVIWHQPGNHQFSGTHRGMAVVGPMLGKMMEVSNGTFAISRADDYMASGDWVAITLEFSGQANGVTLKQAGVDLLRIEDGKIVEVRLFSADQTQEDAFWGR
- protein production: not failed

Sequence: MSEAIVTIVVVPRERFSCTQASLESIYEHTKIPFKLIYVDGNSPTKVRKYLQKQAQEKNFQLIRTDYYLSPNHARNIGLSHVDTKYLVFLDNDVIVSPGWLQALVNCAETTGATVVGPLMCEKEPIHERIHFAGGESHIVIDVKGRRHLREKMYKQGHQVSELRSQLQQTETELAEFHCTLIRREIFEQIGYLDEEMLNTKEHLDFCMNVIQAGGKVYFEPDSLVTYVPGPPLEWSDLHFYMLRWSDAWTLASLQRIRAKWNLSEDGYFQTKYKKLGVRRVATIIKPFVRQVSFGNENKPLKRFLKNLDRKLNRFLTDRYTEMLPQRKLELPIIKKEISSVKEFTQV
- protein production: failed

Sequence: MDIISSYSPIHVVGGGLAGSEAAWQIASAGVPVILHEMRGVRGTDAHKTDGLAELVCSNSFRSDDATSNAVGVIHAEMRMAGSLIMAAADRHQVPAGGALAVDRDGFSDAVTRAIHDHPLITVMREEITGLPPSDWDLAIVATGPLTAPSLAAAIQAETGEDSLAFFDAIAPIVYRESIDMDICWYQSRYDKVGPGGTGKDYINCPMDEAQYNAFVNALIAGDTVGFKEWEGTPYFDGCLPIEVMAERGRETLRHGPMKPMGLTNAHNPTVKAYAVVQLRQDNALGTLYNMVGFQTKLKYGAQAEIFRMIPGLENAEFARLGGLHRNTYINSPTLLDPSLTLKSRPGLRFAGQITGCEGYVESASVGLMAGRFAAAERKGEAISLPPATTALGSLLGHITGGHIVTDEEPGKRSFQPMNINFGLFPELEPGSIVKPEGVKRFRGKDKTIMKRQLIARRALADCAAWLGQTRTLAERA
- protein production: failed

Sequence: YIGLVNSFAQKKKLSVNYEQCEPNSELPQRFICKCKIGQTMYGTGSGVTKQEAKQLAAKEAYQKLLKSPPKTAGT
- protein production: not failed

Sequence: MLPAYIRIHDQIKKEIDEGLWKIGDRLPSERDLAERFEVSRMTLRQAITLLVEEGILERRVGSGTYIASSRVQEKMRGTTSFTEIVKSQGKTPSTKLISYRRVHPSEQEIKFLDIKPKSYIIRMERVRYADDIPVVFEVTAIPEKIIKSFKKEAITKHFFKTLTDHGFVIGKSQQTISASNANEMTADYLAISRGHAVLTLAQVSYFENGMPFEYVRSQYVGERFEFYLENK
- protein production: not failed

Sequence: MESDSEMVPFPQLPMPIENNYRACTIPYRFPSDDPKKATPNEISWINVFANSIPSFKKRAESDITVPDAPARAEKFAERYAGILEDLKKDPESHGGPPDGILLCRLREQVLRELGFRDIFKKVKDEENAKAISLFPQVVSLSDAIEDDGKRLENLVRGIFAGNIFDLAVKTWFHDHGSLMTWKTSKPNGSISLGRRSLICFALPFNASFRLQCLFSELKYTLNCSSSSSFPFKVVLAANELPSINDITCTELTEILSQLKDENGQLLGVDTSKLLIANSGNDLPVIDLSRVSQELAYLSSDADLVIVEGMGRGIETNLYAQFKCDSLKIGMVKHLEVAEFLGGRLYDCVFKFNEVQS
- protein production: not failed

Sequence: MATEPIRIGVVGASPDRGWAADAHLPALQHLPQYKITAVGTRRADSAHRAARRYGATHAFTDPRSLAAHPDVELVAIVVKVPDHARLVEAALAAGKHVLCEWPLARTTEEAAQLTAAAHGAGVVNAVGLQARHTPTVVRARELIRQGYVGRVTSVTVYSTRGVAAGGRLPAAFAYTLDSTNGAGTLEVAGGHTLDAVQYLLGREMTGLSAALSVQHPRITLDEDARQTGATSPDHVALHATLEGGAALVVHIHDAKNSGAGTRIEISGTQGELAIVSTGPRSGSGLQISELALLGAQGTEPSGQELPFPGSWGTAVPADGLDAAQHTMAVQYAALAADIREGGSRVPRFADGIELHRLLDAVRLSSATGCRLERRAGERWPVSSPWPRRRRSR
- protein production: failed
